How the values were obtained:
[1] = target: Drp1-S600D (phosphomimetic mutant of human DRP1 isoform 3) (human); assay: co-sedimentation
[2] = target: Drp1-S579D (phosphomimetic mutant of human DRP1 isoform 3) (human); assay: co-sedimentation

For “MFF-∆TM (truncated human MFF isoform 4) (from UniProt Q9GZY8-4 1-218) (domain or fragment)”, the percent less Drp1 and Mff in the pellets than for Drp1-WT [1] was 50% and the percent less Drp1 and Mff in the pellets than for Drp1-WT [2] was 50%.

From article PMC10881151
